Assay results taken from patent US20200317768A1 (published 2020).

Key:
[1] = target: T1, human FcγRIIb constitutively expressed on MDCK cells (human, UniProt P31994 43-310); assay: cell-based or functional assay
T1 sequence (looked up): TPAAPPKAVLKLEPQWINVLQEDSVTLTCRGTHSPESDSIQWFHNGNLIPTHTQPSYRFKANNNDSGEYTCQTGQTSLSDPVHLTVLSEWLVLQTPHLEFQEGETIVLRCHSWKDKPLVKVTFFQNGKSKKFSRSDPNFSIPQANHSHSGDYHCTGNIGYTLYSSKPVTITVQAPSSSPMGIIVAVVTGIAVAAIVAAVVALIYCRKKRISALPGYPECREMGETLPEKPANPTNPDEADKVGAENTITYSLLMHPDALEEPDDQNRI

Human latent myostatin [2] = target: T2, Human latent myostatin (human, UniProt O14793 25-266; O14793 267-375); assay: SPR (BIACORE T200), 37 C, pH7.4, avidity condition (capture 185 RU), 1:1 fit; pH 7.4
T2 construct: Biotinylated in the ELISAs; also called human myostatin latent form
T2 sequence 1: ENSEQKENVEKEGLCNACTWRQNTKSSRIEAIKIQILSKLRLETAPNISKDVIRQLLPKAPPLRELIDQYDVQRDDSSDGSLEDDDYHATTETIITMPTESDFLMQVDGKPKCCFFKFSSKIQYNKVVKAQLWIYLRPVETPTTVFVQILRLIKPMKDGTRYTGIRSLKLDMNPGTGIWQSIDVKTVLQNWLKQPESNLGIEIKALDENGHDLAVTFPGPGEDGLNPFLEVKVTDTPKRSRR
T2 sequence 2: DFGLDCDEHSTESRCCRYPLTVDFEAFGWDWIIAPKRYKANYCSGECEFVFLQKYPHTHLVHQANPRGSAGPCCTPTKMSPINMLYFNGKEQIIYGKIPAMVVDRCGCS
Method: (§1) The kinetic parameters of anti-latent myostatin antibodies against human, cynomolgus monkey (cyno), and mouse latent myostatin were assessed at 37° C. at pH7.4 using a BIACORE® T200 instrument (GE Healthcare). ProA/G (Pierce) was immobilized onto all flow cells of a CM4 chip using amine coupling kit (GE Healthcare). Anti-latent myostatin antibody and analytes were prepared in ACES pH7.4 (20 mM ACES, 150 mM NaCl, 1.2 mM CaCl₂), 0.05% TWEEN® 20, 0.005% NaN₃). […] Then human, cyno, or mouse latent myostatin was injected at 3.125 to 50 nM prepared by two-fold serial dilution, followed by dissociation. The sensor surface was regenerated with 25 mM NaOH. Kinetic parameters were determined by processing and fitting the data to a 1:1 binding model using BIACORE® T200 Evaluation software, version 2.0 (GE Healthcare).
(§2) All experimental settings were the same as in Example 7, except that measurements were also performed in ACES pH5.8 buffer in addition to ACES pH7.4 condition. Some antibodies were only measured against human latent myostatin. Antibody capture level was aimed at 185 RU and 18.5 RU, for avidity and affinity assay, respectively. Kinetic parameters were determined using 1:1 Binding fitting using BIACORE® T200 Evaluation software, version 2.0 (GE Healthcare).

Mouse latent myostatin [3] = target: T3, Mouse latent myostatin (mouse, UniProt O08689 26-267; O08689 268-376); assay: as above
T3 construct: signal 1-24
T3 sequence 1: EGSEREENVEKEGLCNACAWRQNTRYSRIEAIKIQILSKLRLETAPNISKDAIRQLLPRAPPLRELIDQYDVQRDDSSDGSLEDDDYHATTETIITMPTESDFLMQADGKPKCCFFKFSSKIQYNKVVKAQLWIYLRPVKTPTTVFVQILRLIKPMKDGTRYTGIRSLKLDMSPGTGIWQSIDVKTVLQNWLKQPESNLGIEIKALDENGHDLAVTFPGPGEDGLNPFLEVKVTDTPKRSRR
T3 sequence 2: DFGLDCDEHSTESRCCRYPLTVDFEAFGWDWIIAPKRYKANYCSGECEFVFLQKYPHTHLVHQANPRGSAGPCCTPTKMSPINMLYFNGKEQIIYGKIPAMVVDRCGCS
Method: as §1, §2

[4] = target: T4, Cynomolgus monkey latent myostatin (cynomolgus monkey, UniProt Q95J86 25-266; Q95J86 267-375); assay: as above
T4 construct: signal 1-24; also called Cyno latent myostatin
T4 sequence 1: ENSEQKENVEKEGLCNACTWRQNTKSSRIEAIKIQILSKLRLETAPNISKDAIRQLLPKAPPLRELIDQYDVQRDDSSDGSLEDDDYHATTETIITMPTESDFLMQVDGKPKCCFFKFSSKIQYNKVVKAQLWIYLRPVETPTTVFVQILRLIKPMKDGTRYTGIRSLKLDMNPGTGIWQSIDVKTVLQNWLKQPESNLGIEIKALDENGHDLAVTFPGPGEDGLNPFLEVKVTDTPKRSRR
T4 sequence 2: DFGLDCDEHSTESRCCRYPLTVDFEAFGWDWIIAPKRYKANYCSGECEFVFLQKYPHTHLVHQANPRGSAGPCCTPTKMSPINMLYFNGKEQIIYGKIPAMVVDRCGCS
Method: as §1, §2

Human latent myostatin [5] = target: T2, Human latent myostatin; assay: SPR (BIACORE T200), 37 C, pH5.8, avidity condition (capture 185 RU), 1:1 fit; pH 5.8
Method: as §1, §2

Mouse latent myostatin [6] = target: T3, Mouse latent myostatin; assay: as above
Method: as §1, §2

[7] = target: T4, Cynomolgus monkey latent myostatin; assay: as above
Method: as §1, §2

Human latent myostatin [8] = target: T2, Human latent myostatin; assay: SPR (BIACORE T200), 37 C, pH7.4, 1:1 fit; title prints avidity, by the text the affinity condition (capture 18.5 RU)
Method: as §1, §2

Mouse latent myostatin [9] = target: T3, Mouse latent myostatin; assay: as above
Method: as §1, §2

[10] = target: T4, Cynomolgus monkey latent myostatin; assay: as above
Method: as §1, §2

GST-hMSTN 121-220aa = target: T5, GST-hMSTN 121-220aa (human, UniProt A1C2U3 121-220 (Pongo pygmaeus entry)); assay: Western blot on GST tagged fragments
T5 construct: As GST-hMSTN 1-100aa; also called seventh fragment; not shown: GST tag from the pGEX4.1 vector
T5 sequence: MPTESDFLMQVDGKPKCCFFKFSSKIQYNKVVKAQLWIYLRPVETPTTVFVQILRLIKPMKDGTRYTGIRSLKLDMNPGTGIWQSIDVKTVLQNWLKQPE
Excerpt: (§3) Fragments of the N-terminal propeptide coding region of human latent myostatin were cloned into a pGEX4.1 vector so as to produce GST tagged propeptide fragments of 100 amino acid each, with 80 amino acid overlap (FIG. 22A). Protein expression was induced in transformed BL21 competent cells with Overnight Express Autoinduction System (Merck Millipore) and protein was extracted using the BUGBUSTER® protein extraction reagent (Novagen).

GST-hMSTN 141-241aa = target: T6, GST-hMSTN 141-241aa (human, UniProt A1C2U3 141-241 (Pongo pygmaeus entry)); assay: Western blot on GST tagged fragments
T6 construct: As GST-hMSTN 1-100aa; also called eighth fragment; not shown: GST tag from the pGEX4.1 vector
T6 sequence: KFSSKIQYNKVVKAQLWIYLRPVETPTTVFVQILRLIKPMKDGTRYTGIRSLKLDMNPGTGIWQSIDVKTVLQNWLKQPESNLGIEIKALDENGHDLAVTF
Excerpt: as §3

GST-hMSTN 101-200aa = target: T7, GST-hMSTN 101-200aa (human, UniProt A1C2U3 101-200 (Pongo pygmaeus entry)); assay: Western blot on GST tagged fragments
T7 construct: As GST-hMSTN 1-100aa; also called sixth fragment; not shown: GST tag from the pGEX4.1 vector
T7 sequence: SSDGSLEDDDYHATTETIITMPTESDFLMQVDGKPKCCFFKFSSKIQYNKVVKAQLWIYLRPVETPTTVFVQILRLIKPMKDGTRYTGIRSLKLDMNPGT
Excerpt: as §3

B1: MS103240H795-TT14/M103202L1045-SK1 (antibody, human IgG1, kappa)
heavy: QVQLVESGGGLVQPGGSLRLSCAVSGIDLSHDDISWVRQAPGKGLEWVSIISYAGSTYYASWAKGRLTISKDTSKNQVVLTMTNMDPVDTATYYCARGVPAYSHGGDLWGQGTLVTVSSASTKGPSVFPLAPSSKSTSGGTAALGCLVKDYFPEPVTVSWNSGALTSGVHTFPAVLQSSGLYSLSSVVTVPSSSLGTQTYICNVNHKPSNTKVDKKVEPKSCDKTHTCPPCPAPEYLGGDSVFLFPPKPKDVLMISRTPEVTCVVIDVSHEDPEVKFNWYVDGVEVHNAKTKPREEQYNSTYRVVSVLPVLHQDWLNGKEYKCKVSNKALPKPIEKTISKAKGQPREPQVYTLPPSREEMTKNQVSLTCLVKGFYPSDIAVEWESNGQPENNYKTTPPVLDSDGSFFLYSKLTVDKSRWQQGNVFSCSVMHEALHNHYTQKSLSLSP
light: DIVMTQSPATLSLSPGERATLSCTTSQSVYHENWLSWFQQKPGQPPKLLIYWASTLAYGVPSRFSGSGSGTDFTLTISSLQPEDAATYYCAGGYGGGRYAFGQGTKVEIKRTVAAPSVFIFPPSDEQLKSGTASVVCLLNNFYPREAKVQWKVDNALQSGNSQESVTEQDSKDSTYSLSSTLTLSKADYEKHKVYACEVTHQGLSSPVTKSFNRGEC
[1]
  cell imaging: fluorescence intensity of labelled human latent myostatin taken up as antigen-antibody complex into MDCK cells expressing human FcγRIIb, relative to SG1: 7.5 fold

B2: MS103240H795-TT33/M103202L1045-SK1 (antibody, human IgG1, kappa)
heavy: QVQLVESGGGLVQPGGSLRLSCAVSGIDLSHDDISWVRQAPGKGLEWVSIISYAGSTYYASWAKGRLTISKDTSKNQVVLTMTNMDPVDTATYYCARGVPAYSHGGDLWGQGTLVTVSSASTKGPSVFPLAPSSKSTSGGTAALGCLVKDYFPEPVTVSWNSGALTSGVHTFPAVLQSSGLYSLSSVVTVPSSSLGTQTYICNVNHKPSNTKVDKKVEPKSCDKTHTCPPCPAPEYLGGDSVFLFPPKPKDVLMISRTPEVTCVVIDVSHEDPEVKFNWYVDGVEVHNAKTKPREEQYNSTYRVVSVLPVLHRDWLNGKEYKCKVSNKALPKPIEKTISKAKGQPREPQVYTLPPSREEMTKNQVSLTCLVKGFYPSDIAVEWESNGQPENNYKTTPPVLDSDGSFFLYSKLTVKKSRWQQGNVFSCSVMHEALHNHYTQKSLSLSP
light: DIVMTQSPATLSLSPGERATLSCTTSQSVYHENWLSWFQQKPGQPPKLLIYWASTLAYGVPSRFSGSGSGTDFTLTISSLQPEDAATYYCAGGYGGGRYAFGQGTKVEIKRTVAAPSVFIFPPSDEQLKSGTASVVCLLNNFYPREAKVQWKVDNALQSGNSQESVTEQDSKDSTYSLSSTLTLSKADYEKHKVYACEVTHQGLSSPVTKSFNRGEC
[1]
  cell imaging: uptake of labelled antigen-antibody complex into MDCK cells expressing human FcγRIIb, relative to SG1: 36 fold

B3: MS_M103205H714-SG1/M103202L861-SK1 (antibody, human IgG1, kappa, V domains shown)
VH: QVTLKESGPVLVKPTETLTLTCTVSGIDLSHTDISWVRQAPGKGLEWVGIISYAGSTYYASWAKGRLTISKDTSKNQVVLTMTNMDPVDTATYYCARGVPAYSHGGDLWGQGTLVTVSS
VL: DIVMTQSPATLSLSPGERATLSCTSSQSVYHNNWLSWFQQKPGQPPKLLIYWASTLAYGVPSRFSGSGSGTDFTLTISSLQPEDAATYYCAGGYGGGRYAFGQGTKVEIKR
notes: also called MS1032LO01-SG1; MSLO-01
Human latent myostatin [2]
  Kd: 0.17 nM
  koff: 0.000216 s⁻¹
  kon: 1.27e+06 M⁻¹ s⁻¹
Mouse latent myostatin [3]
  Kd: 0.149 nM
  koff: 0.000217 s⁻¹
  kon: 1.45e+06 M⁻¹ s⁻¹
[4]
  Kd: 0.165 nM
  koff: 0.000197 s⁻¹
  kon: 1.19e+06 M⁻¹ s⁻¹
Human latent myostatin [5]
  Kd: 19.9 nM
  koff: 0.0242 s⁻¹
  kon: 1.22e+06 M⁻¹ s⁻¹
Mouse latent myostatin [6]
  Kd: 6.15 nM
  koff: 0.00625 s⁻¹
  kon: 1.02e+06 M⁻¹ s⁻¹
[7]
  Kd: 8.9 nM
  koff: 0.0068 s⁻¹
  kon: 764000 M⁻¹ s⁻¹
Human latent myostatin [8]
  Kd: 0.788 nM
  koff: 0.00129 s⁻¹
  kon: 1.64e+06 M⁻¹ s⁻¹
Mouse latent myostatin [9]
  Kd: 0.713 nM
  koff: 0.00107 s⁻¹
  kon: 1.5e+06 M⁻¹ s⁻¹
[10]
  Kd: 0.954 nM
  koff: 0.0011 s⁻¹
  kon: 1.15e+06 M⁻¹ s⁻¹

B4: MST1032 (as tested in Example 26) (antibody, V domains shown)
VH: QSLEESGGRLVTPGGSLTVTCRVSGIDLSSYDISWVRQAPGKGLEWIGIISYAGSTYYASWAKGRFTISKTSTTVDLKMTSLTTEDTATYFCARGVPAYSTGGDLWGPGTLVTVSS
VL: AQVLTQTASSVSAAVGGTVTINCQSSQSVYDNNWLSWFQQKPGQPPKLLIYWASTLASGVPSRFKGSGSGTQFTLTISDLECDDAATYYCAGGYGGGLYAFGGGTKVEIK
GST-hMSTN 121-220aa
  binding result: no binding
GST-hMSTN 141-241aa
  binding result: no binding
GST-hMSTN 101-200aa
  binding result: no binding
